Patent US20090110678A1 (Eli Lilly, published 2009)

How the values were obtained:
[1] = molecular target: T1, Human PDGFRα extracellular domain (ECD) (human, UniProt P16234 24-528); assay: SPR, BIAcore 3000, PDGFRα ECD immobilized, antibody injected; Koff/Kon
T1 construct: extracellular domain; Bought reagent; also called PDGFRa ECD; PDGFRα ECD
Procedure: (§1) The kinetics of antibody binding to PDGFRα was measured using a BIAcore 3000 instrument (BIAcore, Inc., Piscataway, N.J.). PDGFRα ECD was immobilized onto a sensor chip and antibody was injected at various concentrations. Sensograms were obtained at each concentration and evaluated using the BIA Evaluation 2.0 program to determine the rate constants. The affinity constant, Kd, was calculated from the ratio of rate constants Koff/Kₒₙ.

[2] = molecular target: T2, PDGFRα expressed on cells (PAE Rα, PC3-ML, SKLMS-1, U118) (human, UniProt P16234 24-1089); assay: cell-based PDGF blocking assay (Heldin et al. 1988); cells and PDGF isoform not named; cell-based PDGF blocking; cells and isoform not named
T2 construct: whole, on cells; also called PDGFRa; cell surface PDGFRα
T2 sequence (P16234 24-1089): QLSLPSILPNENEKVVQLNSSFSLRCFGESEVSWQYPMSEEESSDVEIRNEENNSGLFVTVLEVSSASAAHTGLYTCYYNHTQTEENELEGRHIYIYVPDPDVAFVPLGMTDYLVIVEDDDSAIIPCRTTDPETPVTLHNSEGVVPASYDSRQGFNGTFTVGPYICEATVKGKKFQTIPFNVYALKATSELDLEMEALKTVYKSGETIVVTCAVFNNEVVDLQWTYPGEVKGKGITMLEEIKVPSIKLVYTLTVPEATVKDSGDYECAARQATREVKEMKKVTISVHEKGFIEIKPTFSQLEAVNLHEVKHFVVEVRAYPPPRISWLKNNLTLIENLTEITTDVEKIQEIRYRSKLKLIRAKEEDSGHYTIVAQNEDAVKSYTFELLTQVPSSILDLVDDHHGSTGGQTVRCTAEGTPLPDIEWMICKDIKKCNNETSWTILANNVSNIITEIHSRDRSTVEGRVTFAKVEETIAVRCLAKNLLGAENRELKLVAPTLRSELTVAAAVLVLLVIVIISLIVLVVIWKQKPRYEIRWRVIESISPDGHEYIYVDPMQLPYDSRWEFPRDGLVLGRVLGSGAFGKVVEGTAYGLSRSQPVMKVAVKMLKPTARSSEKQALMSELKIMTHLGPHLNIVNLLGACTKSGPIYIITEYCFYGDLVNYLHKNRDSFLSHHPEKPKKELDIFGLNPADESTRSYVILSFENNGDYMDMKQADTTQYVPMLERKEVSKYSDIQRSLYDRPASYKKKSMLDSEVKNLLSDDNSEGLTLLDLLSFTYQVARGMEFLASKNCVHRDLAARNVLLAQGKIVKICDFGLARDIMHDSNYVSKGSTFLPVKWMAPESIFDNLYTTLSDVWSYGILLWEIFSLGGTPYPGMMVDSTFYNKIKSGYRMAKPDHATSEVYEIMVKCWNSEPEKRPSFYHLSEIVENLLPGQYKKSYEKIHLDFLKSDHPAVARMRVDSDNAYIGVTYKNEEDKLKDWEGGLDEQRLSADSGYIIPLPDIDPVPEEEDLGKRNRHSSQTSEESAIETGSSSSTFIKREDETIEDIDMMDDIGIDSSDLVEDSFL

[3] = molecular target: T2, PDGFRα expressed on cells (PAE Rα, …); assay: cell-based or functional assay
[4] = molecular target: T1, Human PDGFRα extracellular domain (ECD); assay: SPR, BIAcore 3000, PDGFRα ECD immobilized, antibody injected
Procedure: as §1

[5] = molecular target: T1, Human PDGFRα extracellular domain (ECD); assay: solid-phase blocking assay: inhibition of [125I]PDGF-AA binding to immobilized PDGFRα ECD
[6] = molecular target: T1, Human PDGFRα extracellular domain (ECD); assay: solid-phase blocking of iodinated PDGF binding to immobilized PDGFRα ECD; the table does not name the ligand, [125I]PDGF-AA by the legend of FIG. 13B; solid-phase PDGF blocking; ligand not named in Table 6
[7] = molecular target: T1, Human PDGFRα extracellular domain (ECD); assay: solid-phase blocking of [125I]PDGF-BB binding to immobilized PDGFRα ECD; [125I]PDGF-BB as ligand, solid phase
[8] = molecular target: T1, Human PDGFRα extracellular domain (ECD); assay: direct binding ELISA on immobilized PDGFRα ECD (ED50, 50% maximum binding)

T1 sequence (P16234 24-528): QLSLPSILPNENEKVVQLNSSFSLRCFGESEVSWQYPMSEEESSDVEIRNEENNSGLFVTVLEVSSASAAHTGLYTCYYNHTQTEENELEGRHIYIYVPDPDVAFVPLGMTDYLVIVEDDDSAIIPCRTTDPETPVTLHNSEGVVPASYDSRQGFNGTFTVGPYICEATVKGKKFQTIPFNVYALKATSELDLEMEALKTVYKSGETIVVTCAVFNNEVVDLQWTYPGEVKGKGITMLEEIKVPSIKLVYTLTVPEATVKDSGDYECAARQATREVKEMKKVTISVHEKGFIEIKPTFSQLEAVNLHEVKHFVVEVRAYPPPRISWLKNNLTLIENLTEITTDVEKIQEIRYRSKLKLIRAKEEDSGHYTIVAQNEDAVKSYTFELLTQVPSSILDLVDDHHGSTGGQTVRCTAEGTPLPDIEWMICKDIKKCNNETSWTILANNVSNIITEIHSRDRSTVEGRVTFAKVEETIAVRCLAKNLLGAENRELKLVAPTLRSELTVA

B1: IMC-3G3, human anti-PDGFRα monoclonal antibody (antibody, human IgG1, V domains shown)
VH: QLQLQESGPGLVKPSETLSLTCTVSGGSINSSSYYWGWLRQSPGKGLEWIGSFFYTGSTYYNPSLRSRLTISVDTSKNQFSLMLSSVTAADTAVYYCARQSTYYYGSGNYYGWFDRWDQGTLVTVSS
VL: EIVLTQSPATLSLSPGERATLSCRASQSVSSYLAWYQQKPGQAPRLLIYDASNRATGIPARFSGSGSGTDFTLTISSLEPEDFAVYYCQQRSNWPPAFGQGTKVEIK
notes: also called EMC-3G3; anti-PDGFRα antibody
For B1, the Kd [1] was 0.04 nM, the IC50 [2] was 0.58 nM and the “EC50, inhibition of PDGF-AA-induced thymidine incorporation in U118 cells” value [3] was 3.4 nM. For the same binder, the koff [4] was 4.7e-05 s⁻¹, the “IC50 (read off the curve)” value [5] was ~0.3 nM and the IC50 [6] was 0.24 nM. For the same binder, the IC50 [7] was 0.43 nM and the EC50 [8] was 0.06 nM.

B2: PDGF-BB (ligand, UniProt P01127 82-190, looked up)
chain: SLGSLTIAEPAMIAECKTRTEVFEISRRLIDRTNANFLVWPPCVEVQRCSGCCNNRNVQCRPTQVQLRPVQVRKIEIVRKKPIFKKATVTLEDHLACKCETVAAARPVT
modifications: 125I label in the blocking assay
With B2 the “PDGFRα tyrosine phosphorylation in PAE Rα cells” value [3] was ~5 fold (at 3 nmol/L).
